Results as given in patent US20200345839A1 (DESENTUM, published 2020).

Biological target: the molecule itself
Assay: native ESI FT-ICR mass spectrometry, 40 uM in 10 mM ammonium acetate (self-association)
Experimental: The mass spectrometric experiments were performed with a 12T solariX XR mass spectrometer (Bruker Daltonics, Billerica, Mass., USA), equipped with an Apollo II ion funnel electrospray source. Before a mass spectrometric analysis, the protein sample was exchanged into an ESI-MS compatible ammonium acetate buffer (10 mM, pH 6.9) by using disposable PD-10 desalting columns (GE Healthcare). For mass spectrometric measurements in denaturing solution conditions, protein sample was diluted to 0.2 μM with acetonitrile/water/acetic acid solution. The protein solution was directly infused into the ion source by a syringe pump with a flow rate of […]. The temperature of the drying gas was 200° C. and the pressure of the nebulizing gas was 1.0 bar. Mass spectra were acquired in the positive ion mode over the m/z range of 800-3000 with 1-Mword time-domain transients and 0.05 sec ion accumulation. […] Desalted protein samples were usually measured at a concentration of 40 μM in 10 mM ammonium acetate buffer. Typically, 100 co-added 256-kword time-domain transients were recorded and processed to 512-kword data prior to fast Fourier transform and frequency to mass conversion. The wild-type Equ c 1 allergen and the Equ c 1 mutants were measured using the same instrumental parameters, in order to avoid any bias between the protein samples. […]

B1: recombinant wild-type Equ c 1 allergen (other)
chain: QQEENSDVAIRNFDISKISGEWYSIFLASDVKEKIEENGSMRVFVDVIRALDNSSLYAEYQTKVNGECTEFPMVFDKTEEDGVYSLNYDGYNVFRISEFENDEHIILYLVNFDKDRPFQLFEFYAREPDVSPEIKEEFVKIVQKRGIVKENIIDLTKIDRCFQLRGNGVAQA
notes: Reported to exist mainly as a dimer at 40 uM; also called rEqu c 1 wt; wt rEqu c 1
- binding result: binds
